Measurements taken from patent US7229788B1, “Protease susceptibility II” (The University of Sydney, priority 1998, dated 2007).

Columns and labels:
Format in all cases: biochemical
human thrombin = target: T1, human thrombin (Homo sapiens, UniProt P00734); assay: Thrombin digestion of SHEL, SDS-PAGE; conditions: for protection from degradation by thrombin in the coacervated state: coacervated at 37° C., 150 mM NaCl
T1 construct: purchased Sigma
Description: (§1) A range of enzyme concentrations was originally used to determine the optimal amount for subsequent experiments. Thrombin (0.01–1U), human plasma kallikrein (3×10^−4 to 3×10^−3U), human plasmin (7×10^−5 to 4×10^−7U), bovine trypsin (5×10^−4 to 4×10^−3U), and human leukocyte elastase (1.6×10^−4 to 3.2×10^−3U) were added to 10 μg SHEL or SHELδ26A in 50 mM sodium phosphate buffer pH 7.8 in a total volume of 20 μl. All reactions were performed at 37° C. for one hour. Gelatinase A and B were activated using 0.8 mM APMA at 37° C. for 30 minutes (gelatinase A) or 37° C. for 45 minutes (gelatinase B). Gelatinase A (4×10^−3−4×10^−2) and gelatinase B (2×10^−5−1×10^−4) was added to […] SHEL or SHELd26A in a total volume of […]. Gelatinase B reactions were performed in the presence of 0.75 mM APMA. The degradation profile was analysed by 8, 10 or 12% SDS-PAGE.
(§2) Both SHEL and SHELδ26A were used. Each reaction was analysed by 10% SDS-PAGE.
(§3) Extent of proteolysis was monitored by SDS-PAGE.
Cleavage of GST-SHEL bound to glutathione agarose was performed by washing and resuspending beads in 1× thrombin cleavage buffer (50 mM Tris-HCl pH8.0, 150 mM NaCl, 2.5 mM CaCl2) and adding human thrombin (Sigma) from 0.1 to 1% (w/v) thrombin:fusion protein at 25° C. for one hour (Smith and Johnston 1988). Soluble bacterial lysates used as substrate were incubated similarly with 1× thrombin cleavage buffer, added from a 10× stock. GST (26 kDa) was evident on beads by SDS-PAGE but SHEL could not be identified in the supernatant in numerous experiments. To determine whether thrombin was degrading SHEL, the entire cell lysate was subject to cleavage with increasing concentrations of thrombin. […] GST was clearly present. However, with 0.01U thrombin a band at approximately 64 kDa could be discerned which may represent SHEL although this was not nearly as intense as the GST band.

human plasma kallikrein = target: T2, human plasma kallikrein (Homo sapiens, UniProt P03952); assay: Kallikrein digestion of SHEL, SDS-PAGE; conditions: for degradation by human plasma kallikrein: 50 mM sodium phosphate pH 7.8, 37° C.; for protection from degradation by kallikrein in the coacervated state: coacervated at 37° C., 150 mM NaCl
T2 construct: purchased Sigma
T2 sequence (P03952 20-638): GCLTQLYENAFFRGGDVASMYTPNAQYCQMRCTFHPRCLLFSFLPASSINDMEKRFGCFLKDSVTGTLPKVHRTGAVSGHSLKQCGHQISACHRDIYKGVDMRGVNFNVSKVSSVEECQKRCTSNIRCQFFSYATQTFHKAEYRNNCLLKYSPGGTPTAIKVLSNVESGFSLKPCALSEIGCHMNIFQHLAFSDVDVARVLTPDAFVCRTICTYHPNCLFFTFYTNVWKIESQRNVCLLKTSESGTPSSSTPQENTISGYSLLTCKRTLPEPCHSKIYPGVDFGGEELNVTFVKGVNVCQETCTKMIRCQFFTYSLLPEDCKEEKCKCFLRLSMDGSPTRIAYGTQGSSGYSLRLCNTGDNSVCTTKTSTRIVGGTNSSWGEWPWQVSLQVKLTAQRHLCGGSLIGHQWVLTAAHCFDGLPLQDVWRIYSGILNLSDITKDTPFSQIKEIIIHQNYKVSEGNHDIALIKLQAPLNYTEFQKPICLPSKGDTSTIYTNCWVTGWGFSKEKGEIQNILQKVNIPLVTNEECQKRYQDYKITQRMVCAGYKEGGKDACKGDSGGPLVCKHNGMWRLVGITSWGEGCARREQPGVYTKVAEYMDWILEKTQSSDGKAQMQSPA
Description: as §1, §2, §3

bovine trypsin = target: T3, bovine trypsin (Bos taurus, UniProt P00760); assay: Trypsin digestion of SHEL, SDS-PAGE
T3 construct: purchased Boehringer-Mannheim
T3 sequence (P00760 24-246): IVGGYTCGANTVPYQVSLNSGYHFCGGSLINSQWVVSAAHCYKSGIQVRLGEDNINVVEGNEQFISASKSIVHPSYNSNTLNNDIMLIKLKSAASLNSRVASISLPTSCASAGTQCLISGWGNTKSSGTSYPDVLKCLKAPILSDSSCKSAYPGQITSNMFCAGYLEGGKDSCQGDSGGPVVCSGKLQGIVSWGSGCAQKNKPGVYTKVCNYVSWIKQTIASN
Description: as §1, §2, §3

human plasmin = target: T4, human plasmin (Homo sapiens, UniProt P00747); assay: Plasmin digestion of SHEL, SDS-PAGE; conditions: for protection from degradation by plasmin in the coacervated state: coacervated at 37° C., 150 mM NaCl
T4 construct: purchased Sigma
T4 sequence (P00747 97-810): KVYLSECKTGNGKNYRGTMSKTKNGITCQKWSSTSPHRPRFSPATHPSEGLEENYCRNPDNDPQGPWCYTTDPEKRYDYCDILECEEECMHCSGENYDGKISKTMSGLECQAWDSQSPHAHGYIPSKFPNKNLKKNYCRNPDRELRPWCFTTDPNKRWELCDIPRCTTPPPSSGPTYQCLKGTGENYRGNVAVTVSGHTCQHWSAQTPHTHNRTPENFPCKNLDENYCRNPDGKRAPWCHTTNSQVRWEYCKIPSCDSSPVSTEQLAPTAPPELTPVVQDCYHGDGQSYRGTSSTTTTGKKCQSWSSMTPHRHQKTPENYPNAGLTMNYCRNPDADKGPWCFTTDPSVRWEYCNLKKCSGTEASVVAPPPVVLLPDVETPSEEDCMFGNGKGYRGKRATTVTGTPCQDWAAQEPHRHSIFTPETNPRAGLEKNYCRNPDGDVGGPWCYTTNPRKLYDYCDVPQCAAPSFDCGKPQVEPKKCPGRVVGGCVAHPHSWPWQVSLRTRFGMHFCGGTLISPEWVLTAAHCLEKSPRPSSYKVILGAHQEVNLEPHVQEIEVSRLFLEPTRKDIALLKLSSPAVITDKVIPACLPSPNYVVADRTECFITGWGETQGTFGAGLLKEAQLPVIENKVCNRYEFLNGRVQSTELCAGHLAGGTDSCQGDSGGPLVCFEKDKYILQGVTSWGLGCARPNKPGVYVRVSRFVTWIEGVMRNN
Description: as §1, §2, §3

[1] = target: T5, human leukocyte elastase (HLE) (Homo sapiens, UniProt P08246); assay: HLE digestion of SHEL, SDS-PAGE
T5 construct: purchased Sigma
T5 sequence (P08246 30-267): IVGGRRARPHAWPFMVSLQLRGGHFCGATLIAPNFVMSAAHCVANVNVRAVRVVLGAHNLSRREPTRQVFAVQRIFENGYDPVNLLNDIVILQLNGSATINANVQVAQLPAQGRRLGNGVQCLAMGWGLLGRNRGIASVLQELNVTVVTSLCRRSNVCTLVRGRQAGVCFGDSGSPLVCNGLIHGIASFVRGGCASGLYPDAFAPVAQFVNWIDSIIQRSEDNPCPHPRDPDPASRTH
Description: as §1, §2, §3

[2] = target: T6, Gelatinase A (72 kDa gelatinase) (Homo sapiens, UniProt P08253); assay: Gelatinase A digestion of SHEL; conditions: SDS-PAGE and zymogram analysis
T6 construct: purchased Boehringer Mannheim Roche Diagnostics
T6 sequence (P08253 110-660): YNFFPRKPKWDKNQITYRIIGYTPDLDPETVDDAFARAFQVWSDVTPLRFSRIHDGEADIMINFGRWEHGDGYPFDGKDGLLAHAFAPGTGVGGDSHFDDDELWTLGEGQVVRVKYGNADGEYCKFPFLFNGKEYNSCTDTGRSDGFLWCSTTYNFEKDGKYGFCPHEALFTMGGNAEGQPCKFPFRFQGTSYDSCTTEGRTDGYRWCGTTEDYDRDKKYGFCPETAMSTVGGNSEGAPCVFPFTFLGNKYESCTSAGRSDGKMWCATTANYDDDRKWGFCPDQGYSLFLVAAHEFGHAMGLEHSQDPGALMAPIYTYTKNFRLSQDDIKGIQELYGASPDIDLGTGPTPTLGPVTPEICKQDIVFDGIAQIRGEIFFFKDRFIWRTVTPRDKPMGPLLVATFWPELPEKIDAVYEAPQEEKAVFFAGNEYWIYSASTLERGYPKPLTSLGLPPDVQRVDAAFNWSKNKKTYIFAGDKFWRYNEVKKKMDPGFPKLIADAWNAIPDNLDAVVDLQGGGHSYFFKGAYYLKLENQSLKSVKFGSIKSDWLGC
Description: as §1

[3] = target: T7, gelatinase B (92 kDa gelatinase) (Homo sapiens, UniProt P14780); assay: Gelatinase B digestion of SHEL; conditions: SDS-PAGE and zymogram analysis
T7 construct: purchased Boehringer Mannheim Roche Diagnostics
T7 sequence (P14780 107-707 limits assumed, species assumed): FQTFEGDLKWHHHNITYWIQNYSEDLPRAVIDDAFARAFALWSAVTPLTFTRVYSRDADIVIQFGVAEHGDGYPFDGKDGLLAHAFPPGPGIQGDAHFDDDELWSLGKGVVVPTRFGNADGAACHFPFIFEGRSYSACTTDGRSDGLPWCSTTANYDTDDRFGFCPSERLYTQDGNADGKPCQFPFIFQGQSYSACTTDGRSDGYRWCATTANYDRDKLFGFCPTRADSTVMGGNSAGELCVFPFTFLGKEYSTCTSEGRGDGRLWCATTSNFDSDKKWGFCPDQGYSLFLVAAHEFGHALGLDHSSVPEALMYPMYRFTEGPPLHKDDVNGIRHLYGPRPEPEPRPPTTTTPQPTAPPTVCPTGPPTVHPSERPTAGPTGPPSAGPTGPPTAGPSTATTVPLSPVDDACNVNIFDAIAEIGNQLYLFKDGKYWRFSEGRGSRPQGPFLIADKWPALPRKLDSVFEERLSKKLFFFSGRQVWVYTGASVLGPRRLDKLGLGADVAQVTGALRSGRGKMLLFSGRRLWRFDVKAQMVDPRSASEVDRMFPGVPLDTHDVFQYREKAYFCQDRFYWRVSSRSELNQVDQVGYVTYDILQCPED
Description: as §1

protease = assay: Protease resistance of SHELδ26A compared with SHEL
Description: as §1

[4] = 50 mM sodium phosphate pH 7.8, 37° C.
[5] = coacervated at 37° C., 150 mM NaCl

Molecule	cleavage of fusion protein by thrombin (human thrombin; thrombin cleavage buffer, 25° C., one hour)	degradation by thrombin (human thrombin; 50 mM sodium phosphate pH 7.8, 37° C., one hour)	protection from degradation by thrombin in the coacervated state (human thrombin)	degradation by human plasma kallikrein (human plasma kallikrein)	protection from degradation by kallikrein in the coacervated state (human plasma kallikrein)	degradation by bovine trypsin (bovine trypsin; [4])	protection from degradation by trypsin in the coacervated state (bovine trypsin; [5])	degradation by human plasmin (human plasmin; [4])	protection from degradation by plasmin in the coacervated state (human plasmin)	degradation by human leukocyte elastase [1, 4]	protection from degradation by HLE in the coacervated state [1, 5]	digestion by gelatinase A [2]	digestion by gelatinase B [3]	protease resistance relative to SHEL (protease)
GST-SHEL: fusion of glutathione S-transferase (GST) with SHEL (protein, left off: a dimerising Fc or GST) GGVPGAIPGGVPGGVFYPGAGLGALGGGALGPGGKPLKPVPGGLAGAGLGAGLGAFPAVTFPGALVPGGVADAAAAYKAAKAGAGLGGVPGVGGLGVSAGAVVPQPGAGVKPGKVPGVGLPGVYPGGVLPGARFPGVGVLPGVPTGAGVKPKAPGVGGAFAGIPGVGPFGGPQPGVPLGYPIKAPKLPGGYGLPYTTGKLPYGYGPGGVAGAAGKAGYPTGTGVGPQAAAAAAAKAAAKFGAGAAGVLPGVGGAGVPGVPGAIPGIGGIAGVGTPAAAAAAAAAAKAAKYGAAAGLVPGGPGFGPGVVGVPGAGVPGVGVPGAGIPVVPGAGIPGAAVPGVVSPEAAAKAAAKAAKYGARPGVGVGGIPTYGVGAGGFPGFGVGVGGIPGVAGVPSVGGVPGVGGVPGVGISPEAQAAAAAKAAKYGVGTPAAAAAKAAAKAAQFGLVPGVGVAPGVGVAPGVGVAPGVGLAPGVGVAPGVGVAPGVGVAPGIGPGGVAAAAKSAAKVAAKAQLRAAAGLGAGIPGLGVGVGVPGLGVGAGVPGLGVGAGVPGFGAGADEGVRRSLSPELREGDPSSSQHLPSTPSSPRVPGALAAAKAAKYGAAVPGVLGGLGALGGVGIPGGVVGAGPAAAAAAAKAAAKAAQFGLVGAAGLGGLGVGGLGVPGVGGLGGIPPAAAAKAAKYGAAGLGGVLGGAGQFPLGGVAARPGFGLSPIFPGGACLGKACGRKRK	extensively and in a reproducible manner	–	–	–	–	–	–	–	–	–	–	–	–	–
SHEL: recombinant human tropoelastin splice form, amino acid sequence SEQ ID NO:4, obtained by the method of WO94/14958 (protein, listed as Homo sapiens) GGVPGAIPGGVPGGVFYPGAGLGALGGGALGPGGKPLKPVPGGLAGAGLGAGLGAFPAVTFPGALVPGGVADAAAAYKAAKAGAGLGGVPGVGGLGVSAGAVVPQPGAGVKPGKVPGVGLPGVYPGGVLPGARFPGVGVLPGVPTGAGVKPKAPGVGGAFAGIPGVGPFGGPQPGVPLGYPIKAPKLPGGYGLPYTTGKLPYGYGPGGVAGAAGKAGYPTGTGVGPQAAAAAAAKAAAKFGAGAAGVLPGVGGAGVPGVPGAIPGIGGIAGVGTPAAAAAAAAAAKAAKYGAAAGLVPGGPGFGPGVVGVPGAGVPGVGVPGAGIPVVPGAGIPGAAVPGVVSPEAAAKAAAKAAKYGARPGVGVGGIPTYGVGAGGFPGFGVGVGGIPGVAGVPSVGGVPGVGGVPGVGISPEAQAAAAAKAAKYGVGTPAAAAAKAAAKAAQFGLVPGVGVAPGVGVAPGVGVAPGVGLAPGVGVAPGVGVAPGVGVAPGIGPGGVAAAAKSAAKVAAKAQLRAAAGLGAGIPGLGVGVGVPGLGVGAGVPGLGVGAGVPGFGAGADEGVRRSLSPELREGDPSSSQHLPSTPSSPRVPGALAAAKAAKYGAAVPGVLGGLGALGGVGIPGGVVGAGPAAAAAAAKAAAKAAQFGLVGAAGLGGLGVGGLGVPGVGGLGGIPPAAAAKAAKYGAAGLGGVLGGAGQFPLGGVAARPGFGLSPIFPGGACLGKACGRKRK	–	easily degraded	significantly protected from degradation	specific and reproducible degradation	significantly protected from degradation	complete degradation with prolonged treatment	some inhibition	at high concentration extensive degradation occurred	not by plasmin	extensive degradation if left for extended period	some inhibition	digested	digested	–
SHELδ26A: derived from SHEL by removing sequence corresponding to exon 26A; SEQ ID NO:5; reduced tropoelastin derivative (protein, listed as Homo sapiens) GGVPGAIPGGVPGGVFYPGAGLGALGGGALGPGGKPLKPVPGGLAGAGLGAGLGAFPAVTFPGALVPGGVADAAAAYKAAKAGAGLGGVPGVGGLGVSAGAVVPQPGAGVKPGKVPGVGLPGVYPGGVLPGARFPGVGVLPGVPTGAGVKPKAPGVGGAFAGIPGVGPFGGPQPGVPLGYPIKAPKLPGGYGLPYTTGKLPYGYGPGGVAGAAGKAGYPTGTGVGPQAAAAAAAKAAAKFGAGAAGVLPGVGGAGVPGVPGAIPGIGGIAGVGTPAAAAAAAAAAKAAKYGAAAGLVPGGPGFGPGVVGVPGAGVPGVGVPGAGIPVVPGAGIPGAAVPGVVSPEAAAKAAAKAAKYGARPGVGVGGIPTYGVGAGGFPGFGVGVGGIPGVAGVPSVGGVPGVGGVPGVGISPEAQAAAAAKAAKYGVGTPAAAAAKAAAKAAQFGLVPGVGVAPGVGVAPGVGVAPGVGLAPGVGVAPGVGVAPGVGVAPGIGPGGVAAAAKSAAKVAAKAQLRAAAGLGAGIPGLGVGVGVPGLGVGAGVPGLGVGAGVPGFGAVPGALAAAKAAKYGAAVPGVLGGLGALGGVGIPGGVVGAGPAAAAAAAKAAAKAAQFGLVGAAGLGGLGVGGLGVPGVGGLGGIPPAAAAKAAKYGAAGLGGVLGGAGQFPLGGVAARPGFGLSPIFPGGACLGKACGRKRK	–	–	significant protection from proteolysis	highly specific and limited proteolysis	significant protection from proteolysis	–	–	–	No protection was seen	–	–	–	–	higher protease resistance than SHEL
